Experiments:
[1] = biological target: T1, σ^70 (purified) (E. coli, UniProt P00579 1-613); test: cryo-EM structure; purified Eσ^70 incubated with ssrA promoter DNA (threefold excess), then CedA (fivefold molar excess over RNAP); complex repurified on Superose 6 Increase in 30 mM HEPES pH 8.0, 100 mM KCl, 5 mM MgCl2, 0.5 mM TCEP; 2.76 Å; conditions: both partners purified
T1 construct: RNA polymerase sigma factor σ70 (RpoD), WT E. coli; also called RpoD

[2] = biological target: T2, RNA polymerase β subunit (in purified RNAP) (E. coli, UniProt P0A8V2 1-1342); test: as above; conditions: both partners purified
T2 construct: RNA polymerase β subunit (RpoB), WT E. coli; Stood in the assay as a subunit of the purified RNAPσ70 holoenzyme; also called β-lobe/βi4
T2 sequence (P0A8V2 whole entry): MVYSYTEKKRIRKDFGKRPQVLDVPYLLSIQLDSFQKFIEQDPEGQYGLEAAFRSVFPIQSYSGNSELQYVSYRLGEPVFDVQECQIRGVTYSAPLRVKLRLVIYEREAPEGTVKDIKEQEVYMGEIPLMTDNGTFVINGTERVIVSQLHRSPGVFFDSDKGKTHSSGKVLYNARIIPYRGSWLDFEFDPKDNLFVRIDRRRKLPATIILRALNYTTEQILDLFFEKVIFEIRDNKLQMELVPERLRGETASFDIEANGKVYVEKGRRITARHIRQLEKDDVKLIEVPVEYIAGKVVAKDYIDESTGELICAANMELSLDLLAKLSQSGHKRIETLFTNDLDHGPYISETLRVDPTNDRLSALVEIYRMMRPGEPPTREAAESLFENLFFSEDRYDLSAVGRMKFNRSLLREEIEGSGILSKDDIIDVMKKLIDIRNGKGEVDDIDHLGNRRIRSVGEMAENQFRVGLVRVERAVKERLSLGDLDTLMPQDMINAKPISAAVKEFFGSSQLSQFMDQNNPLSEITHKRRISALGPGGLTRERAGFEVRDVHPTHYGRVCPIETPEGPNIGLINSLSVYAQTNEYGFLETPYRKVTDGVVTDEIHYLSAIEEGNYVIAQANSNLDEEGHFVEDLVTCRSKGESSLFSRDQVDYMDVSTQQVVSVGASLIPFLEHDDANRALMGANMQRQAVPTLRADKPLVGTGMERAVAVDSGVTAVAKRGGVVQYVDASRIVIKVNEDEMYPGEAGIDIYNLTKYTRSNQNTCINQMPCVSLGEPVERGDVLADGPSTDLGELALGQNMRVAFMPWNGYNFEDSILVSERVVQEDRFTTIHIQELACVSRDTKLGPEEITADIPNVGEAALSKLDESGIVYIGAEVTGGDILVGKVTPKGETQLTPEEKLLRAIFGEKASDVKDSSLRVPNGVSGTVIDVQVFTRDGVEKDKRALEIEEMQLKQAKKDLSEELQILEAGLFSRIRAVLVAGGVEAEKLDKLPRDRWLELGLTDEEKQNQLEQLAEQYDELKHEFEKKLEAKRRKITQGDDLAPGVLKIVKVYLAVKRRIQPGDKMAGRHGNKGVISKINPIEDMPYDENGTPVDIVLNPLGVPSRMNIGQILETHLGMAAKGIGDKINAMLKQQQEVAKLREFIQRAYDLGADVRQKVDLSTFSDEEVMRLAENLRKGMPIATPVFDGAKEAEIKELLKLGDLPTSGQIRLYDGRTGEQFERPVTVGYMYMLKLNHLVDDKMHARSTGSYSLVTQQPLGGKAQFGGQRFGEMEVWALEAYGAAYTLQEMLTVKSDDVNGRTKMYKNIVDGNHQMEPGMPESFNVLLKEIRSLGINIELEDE

T1 sequence (P00579 whole entry): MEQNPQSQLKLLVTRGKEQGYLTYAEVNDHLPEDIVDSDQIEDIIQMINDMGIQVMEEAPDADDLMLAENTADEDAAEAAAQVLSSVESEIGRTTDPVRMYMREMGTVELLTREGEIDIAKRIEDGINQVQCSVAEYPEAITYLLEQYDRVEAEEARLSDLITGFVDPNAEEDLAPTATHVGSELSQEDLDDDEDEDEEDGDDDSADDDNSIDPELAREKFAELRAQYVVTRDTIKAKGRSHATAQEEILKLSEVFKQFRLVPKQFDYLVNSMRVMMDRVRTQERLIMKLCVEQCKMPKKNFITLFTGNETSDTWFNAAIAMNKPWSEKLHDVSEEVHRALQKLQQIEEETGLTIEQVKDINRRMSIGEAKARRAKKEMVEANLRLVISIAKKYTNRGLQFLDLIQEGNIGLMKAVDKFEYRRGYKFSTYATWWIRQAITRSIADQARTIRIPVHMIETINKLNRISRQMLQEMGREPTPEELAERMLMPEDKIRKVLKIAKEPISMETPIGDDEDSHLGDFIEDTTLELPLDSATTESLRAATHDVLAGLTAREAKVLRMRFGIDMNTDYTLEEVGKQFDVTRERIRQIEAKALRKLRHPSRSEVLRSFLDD

B1: CedA (purified recombinant) (natural protein, E. coli, UniProt P0AE60 1-80, looked up)
chain: MKKPLRQQNRQIISYVPRTEPAPPEHAIKMDSFRDVWMLRGKYVAFVLMGESFLRSPAFTVPESAQRWANQIRQEGEVTE
notes: CedA, E. coli; the open reading frame of cedA amplified from the MG1655 chromosome; also called WT CedA; source: E. coli BL21(DE3), pSumoH10-cedA, purified (HisTrap, Ulp1 tag removal, HiTrap SP, Superdex 75); not shown: 10× His, N-terminal, cleaved; SUMO, N-terminal, cleaved
B1: binds [1]; binds [2].
